These results are taken from article PMC4447588.

Data set [1] has as its system Cc1cc2nc3c(=O)[nH]c(=O)nc-3n(C[C@H](O)[C@H](O)[C@H](O)COP(=O)(O)O)c2cc1C. Put plainly: purified protein. The following applies: NADPH, pH 7.0, 37 °C, varied: cofactor.
The subject of data set [2] is NC(=O)C1=CN([C@@H]2O[C@H](COP(=O)(O)OP(=O)(O)OC[C@H]3O[C@@H](n4cnc5c(N)ncnc54)[C@H](OP(=O)(O)O)[C@@H]3O)[C@@H](O)[C@H]2O)C=CC1. Description: purified protein. The following applies: FMN, pH 7.0, 37 °C.

The term Km denotes the concentration of substrate that gives half-maximal velocity. As for PpArsH (Pseudomonas putida KT2440), in data set [1], the K0.5 is listed as 7.8 µM. Besides, the Km in data set [2] was 74 µM.
